From article PMC4837482, “The complex binding mode of the peptide hormone H2 relaxin to its receptor RXFP1” (Nature Communications, 2016) come the findings set out here.

Some results are limits rather than exact numbers.

The target in one experiment is T1, RXFP1 F50A^ins (Homo sapiens, UniProt Q9HBX9, INS72A).
T1 construct: transiently transfected human embryonic kidney (HEK) 293T cells expressing full-length RXFP1 and mutants; expressed in transfected cells; host or cells: HEK293T
T1 sequence (Q9HBX9 with tags, fused parts or gaps INS72A limits assumed): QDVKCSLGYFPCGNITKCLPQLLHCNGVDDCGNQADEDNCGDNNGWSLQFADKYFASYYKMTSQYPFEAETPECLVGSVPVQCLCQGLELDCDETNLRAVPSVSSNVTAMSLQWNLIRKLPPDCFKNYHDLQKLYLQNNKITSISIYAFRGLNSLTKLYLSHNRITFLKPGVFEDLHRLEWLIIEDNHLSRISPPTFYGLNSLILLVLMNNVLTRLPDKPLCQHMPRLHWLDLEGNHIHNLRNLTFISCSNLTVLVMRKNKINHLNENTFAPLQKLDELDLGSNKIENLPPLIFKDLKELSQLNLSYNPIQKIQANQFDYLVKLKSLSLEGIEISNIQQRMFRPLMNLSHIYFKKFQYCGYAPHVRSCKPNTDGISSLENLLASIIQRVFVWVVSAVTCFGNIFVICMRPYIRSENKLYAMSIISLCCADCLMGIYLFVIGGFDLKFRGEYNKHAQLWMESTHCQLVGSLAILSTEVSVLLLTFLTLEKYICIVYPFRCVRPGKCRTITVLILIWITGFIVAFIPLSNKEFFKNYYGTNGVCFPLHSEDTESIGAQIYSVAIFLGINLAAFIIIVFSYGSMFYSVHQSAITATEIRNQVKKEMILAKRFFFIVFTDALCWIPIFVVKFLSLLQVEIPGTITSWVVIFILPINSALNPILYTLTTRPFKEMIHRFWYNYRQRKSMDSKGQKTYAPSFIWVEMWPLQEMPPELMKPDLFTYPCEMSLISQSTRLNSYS
Description: Eu-H2 relaxin saturation binding assay, transfected HEK293T cells. Conditions: F50A^Ins-RXFP1 versus wild-type RXFP1.

The target in the next experiment is T2, RXFP1 Q49A/F50A (Homo sapiens, UniProt Q9HBX9, F72A/Q71A).
T2 construct: cells expressing full-length RXFP1 and mutants; expressed in transfected cells; host or cells: HEK293T
T2 sequence (Q9HBX9 23-757 Q71A/F72A limits assumed): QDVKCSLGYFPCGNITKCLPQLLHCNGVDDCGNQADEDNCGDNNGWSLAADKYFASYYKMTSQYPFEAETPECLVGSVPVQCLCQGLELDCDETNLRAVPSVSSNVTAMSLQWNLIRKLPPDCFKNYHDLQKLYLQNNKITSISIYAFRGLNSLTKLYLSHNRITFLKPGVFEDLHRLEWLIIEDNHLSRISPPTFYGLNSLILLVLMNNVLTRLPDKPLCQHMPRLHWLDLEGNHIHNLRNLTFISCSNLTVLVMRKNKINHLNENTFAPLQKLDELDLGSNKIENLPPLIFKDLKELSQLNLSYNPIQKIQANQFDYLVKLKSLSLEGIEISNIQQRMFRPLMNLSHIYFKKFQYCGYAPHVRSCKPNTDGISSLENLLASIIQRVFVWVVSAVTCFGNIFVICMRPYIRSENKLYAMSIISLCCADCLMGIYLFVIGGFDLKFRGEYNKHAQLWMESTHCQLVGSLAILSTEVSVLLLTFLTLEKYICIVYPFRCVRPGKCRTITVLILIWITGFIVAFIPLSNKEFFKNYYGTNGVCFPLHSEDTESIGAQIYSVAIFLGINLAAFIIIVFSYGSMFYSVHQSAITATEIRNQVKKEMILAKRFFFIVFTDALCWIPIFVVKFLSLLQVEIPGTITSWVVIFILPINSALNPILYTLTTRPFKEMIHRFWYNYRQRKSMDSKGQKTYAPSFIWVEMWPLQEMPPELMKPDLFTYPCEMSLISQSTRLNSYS
Description: cAMP activity assay (pCRE β-galactosidase reporter), transfected HEK293T cells. Format: cell-based. The conditions noted are these: construct Q49A/F50A, ±s.e.m. The method, boiled down:
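Stim: H2 relaxin in minimal media/1% DMSO; +ctrl 5 μM Forskolin, −ctrl vehicle. Plates frozen −80 °C o/n, lysed 10 min + 10 min in Na2HPO4 pH 8.0 buffers, CPRG substrate, A570. Data = % Forskolin max.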

In experiment [1] the target is RXFP1 N43A/N44A, full length (human).
For experiment [2], the target named is RXFP1 F66A, full length (human).
Experiment [3] concerns the target RXFP1 N44A, full length (human).
The target in experiment [4] is RXFP1 D42A, full length (human).
Experiment [5] deals with RXFP1 M60A, full length (human).
The target in experiment [6] is RXFP1 F54A/Y58A, full length (human).
The target in experiment [7] is RXFP1 G41A, full length (human).
Experiment [8] concerns the target RXFP1 W46A, full length (human).
In experiment [9] the target is RXFP1 Y58A, full length (human).
Experiment [10] concerns the target RXFP1 N43A, full length (human).
Experiment [11] deals with RXFP1 F54A, full length (human).

For the molecule “H2 relaxin: two-chain 6-kDa peptide hormone structurally related to insulin; recombinant human gene-2 H2 relaxin provided by Corthera”, the “loss of binding to H2 relaxin” value in the experiment with RXFP1 F50A^ins was found to be 25 fold. In the experiment with RXFP1 Q49A/F50A (cAMP reporter), the “H2 relaxin pEC50” value is listed as 9.17±0.04 (3). In addition, in the experiment with RXFP1 Q49A/F50A (percentage of maximum response to 5 μM Forskolin), the “H2 relaxin Emax” value is 98.2±8.8 (3) %.

B1: H2 relaxin (ligand, human)
chain 1: QLYSALANKCCHVGCTKRSLARFC
chain 2: DSWMEEVIKLCGRELVRAQIAICGMSTWS
As to B1, the H2 relaxin-induced cAMP response (pCRE β-galactosidase reporter, HEK293T), pEC50 is 8.29 pEC50 in experiment [1]; 11.2 pEC50 in experiment [2]; 11 pEC50 in experiment [3]; under 6 pEC50 in [4]; 11.2 pEC50 in experiment [5]; 9.87 pEC50 in experiment [6]. Also, the H2 relaxin-induced cAMP response (pCRE β-galactosidase reporter, HEK293T), pEC50 in experiment [7] came to 11.1 pEC50; in experiment [8] it was 7.02 pEC50; in [9] it was 10.9 pEC50; in experiment [10], 9.06 pEC50; in experiment [11] it was 10.2 pEC50.
